From article PMC7712654, “Docking of acetyl-CoA carboxylase to the plastid envelope membrane attenuates fatty acid production in plants” (Nature Communications, 2020)

Target: T1, α-CT coiled-coil domain fused with HIS tag (α-CT-His), fluorescently labeled (Arabidopsis thaliana, fluorescently labeled using His-tag labeling kit (NanoTemper, MO-L008))
T1 construct: α-carboxyltransferase (α-CT), Arabidopsis thaliana, At2g38040, C-terminus / coiled-coil domain; also called C-terminus of α-CT; labeled α-CT coiled-coil domain; source: expressed in Luria Broth with IPTG (pET30a), purified on nickel agarose resin
Test: MST; 100 nM α-CT-His labeled with His-tag labeling kit, mixed with serial dilutions of CTI in PBS buffer; 100% LED power, high MST power, NanoTemper Monolith NT.115
Conditions: both partners purified

B1: coiled-coil domain of CTI1 fused with HIS tag (domain or fragment)
chain: PQISKAIAGADRKDLMRKLPKFIYDEEKALEKTRKVLAEKIAQLNSAIDDVSSQLKSEDTPNGAALSTDEIEATA
In the case of B1, the “fold higher affinity than CTI2 (from KD values)” value is reported as 100 fold and the “fold higher affinity than CTI3 (from KD values)” value is reported as 10 fold.
